Tests used:
[1] = target: T1, natural human type I interferon receptor (IFN-R) on the surface of human cells (human) (UniProt P17181); assay: inhibition of binding of 125I-IFN alpha 2 (100 pM) to HL60 cells, 4 C; competitor: labelled IFN alpha 2
T1 sequence: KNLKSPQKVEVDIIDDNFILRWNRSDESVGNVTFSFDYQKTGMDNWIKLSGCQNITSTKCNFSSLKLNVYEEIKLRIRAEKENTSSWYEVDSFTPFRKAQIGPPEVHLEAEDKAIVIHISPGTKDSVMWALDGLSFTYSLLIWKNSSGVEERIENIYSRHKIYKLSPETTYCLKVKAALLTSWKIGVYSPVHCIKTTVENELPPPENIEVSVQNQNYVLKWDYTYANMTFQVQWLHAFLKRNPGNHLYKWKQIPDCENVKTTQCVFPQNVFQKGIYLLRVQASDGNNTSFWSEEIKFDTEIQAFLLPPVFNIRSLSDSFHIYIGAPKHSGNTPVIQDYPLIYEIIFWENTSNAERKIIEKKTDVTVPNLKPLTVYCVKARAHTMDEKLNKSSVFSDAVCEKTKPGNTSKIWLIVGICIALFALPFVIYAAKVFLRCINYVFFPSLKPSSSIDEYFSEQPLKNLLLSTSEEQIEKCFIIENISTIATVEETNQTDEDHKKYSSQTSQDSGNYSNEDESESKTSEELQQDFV

[2] = target: T1, natural human type I interferon receptor (IFN-R) on the surface of human cells (human); assay: inhibition of binding of 125I-IFN alpha 2 (100 pM) to Ly28 cells, 4 C; competitor: labelled IFN alpha 2
[3] = target: T1, natural human type I interferon receptor (IFN-R) on the surface of human cells (human); assay: inhibition of binding of 125I-IFN alpha 2 (100 pM) to Daudi cells, 4 C; competitor: labelled IFN alpha 2
[4] = target: T1, natural human type I interferon receptor (IFN-R) on the surface of human cells (human); assay: inhibition of binding of 125I-IFN alpha 2 (100 pM) to K562 cells, 4 C; competitor: labelled IFN alpha 2

IC50 [1]: 11 mg/L | IC50 [2]: 60 mg/L | IC50 [3]: 0.4 mg/L | IC50 [4]: 0.4 mg/L
B1: monoclonal antibody 64G12 (antibody, from another filing, IgG1, V domains shown)
VH: QVTLKESGPGILKPSQTLSLTCSFSGFSLSTSGMGIGWIRQPSGKGLEWLAHIWWDDDKYYNPSLKSQLTISRDTSTNQVFLNITSVDTVDTATYYCGRNYYPYDAWFDYWGQGTLVTVS
VL: EIVLTQSPTTMAASPGEKITITCSASSSINSNHLHWYQQKPGFSPKVLIYRTSILASGVPTRFSGSGSGTSYSLTIGTMEAEDVATYYCQQGSNIPFTFGSGTELEIKR

From patent publication US20040191840A1
